Results on one molecule are retold here after paper PMC12828418, “Structural analyses and substrate profiling of PPEP-3 provide new insights into the molecular basis of Pro-Pro endopeptidase specificity” (iScience, 2025).

This test has as its target T1, PPEP-3 E154A/Y190F (proteolytically inactive double mutant of Pro-Pro endopeptidase 3 from Geobacillus … (Geobacillus thermodenitrificans strain …, UniProt A4INY2 27-235, E154A | Y190F)).
T1 construct: codon optimised for E. coli, cloned in pET28a via NdeI/XhoI; Zinc metalloprotease; for the substrate complex the catalytic Zn2+ was partly removed with EDTA and ortho-phenanthroline (occupancy about 40-50%); Surmise: pET28a with NdeI/XhoI adds an N-terminal His6 tag with a thrombin site; no cleavage of the tag is described, and 381 uM = 10 mg/mL (about 26 kDa) fits a kept tag; source: E. coli …
T1 sequence (looked up): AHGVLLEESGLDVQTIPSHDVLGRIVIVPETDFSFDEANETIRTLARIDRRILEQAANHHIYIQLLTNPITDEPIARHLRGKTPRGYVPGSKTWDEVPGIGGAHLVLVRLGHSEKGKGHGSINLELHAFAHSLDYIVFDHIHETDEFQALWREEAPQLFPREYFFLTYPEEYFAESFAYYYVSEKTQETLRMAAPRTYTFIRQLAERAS
Put plainly: crystal structure; co-crystal of the Zn2+-depleted (EDTA and ortho-phenanthroline) double mutant with the substrate peptide; sitting drop vapour diffusion, Morpheus E9, 0.1 M bicine/Trizma base pH 8.5; 2.02 Å, space group P212121, four monomers in the ASU. Conditions: both partners purified.

B1: Ac-EPLPPPP-NH2 substrate peptide (peptide)
peptide: Ac-EPLPPPP-NH2
notes: synthetic substrate peptide of PPEP-3; P3-P3' are PLPPPP, cleavage between P1 and P1' prolines; also called PLPPPP (P3-P3'); source: synthetic peptide
For the molecule B1, the binding result is recorded as “binds”.
